Article PMC4434771

What was measured:
[1] = molecular target: human neonatal Fc receptor (FcRn), heterodimer of alpha-FcRn and beta2 microglobulin (human) (UniProt P55899); assay: FcRn affinity chromatography
[2] = molecular target: human neonatal Fc receptor (FcRn), heterodimer of alpha-FcRn and beta2 microglobulin (human) (UniProt P55899); assay: SPR

Substance	FcRn column retention time [1] [min]	Rel. KD (KD normalised to the KD of ustekinumab) [2]	FcRn column elution pH [1] [pH]
IdeS-cleaved Fc region of ustekinumab (domain or fragment)	85.2	–	–
IdeS-cleaved Fc region of briakinumab (domain or fragment)	85.7	–	–
mAb 5 (ustekinumab CDRs on briakinumab) (antibody)	85.1	0.9	–
briakinumab (antibody)	93.7	–	7.9

Other lines, results leading:

FcRn column retention time [1] [min]	Rel. KD (KD normalised to the KD of ustekinumab) [2]	FcRn column elution pH [1] [pH]	Substance
84.3	1	–	mAb 1 (ustekinumab Fv + briakinumab constant domains) (antibody)
92.4	–	–	mAb 3 (ustekinumab HC + briakinumab LC) (from UniProt P01857 2-107) (antibody)
